Reference: article PMC4227774, “RppH-dependent pyrophosphohydrolysis of mRNAs is regulated by direct interaction with DapF in Escherichia coli” (Nucleic Acids Research, 2014)

B2: DapF, diaminopimelate (DAP) epimerase, purified (enzyme, E. coli, UniProt P0A6K1 1-274, looked up)
chain: MQFSKMHGLGNDFMVVDAVTQNVFFSPELIRRLADRHLGVGFDQLLVVEPPYDPELDFHYRIFNADGSEVAQCGNGARCFARFVRLKGLTNKRDIRVSTANGRMVLTVTDDDLVRVNMGEPNFEPSAVPFRANKAEKTYIMRAAEQTILCGVVSMGNPHCVIQVDDVDTAAVETLGPVLESHERFPERANIGFMQVVKREHIRLRVYERGAGETQACGSGACAAVAVGIQQGLLAEEVRVELPGGRLDIAWKGPGHPLYMTGPAVHVYDGFIHL
notes: DapF, diaminopimelate epimerase, E. coli; The text sets 'purified DapF' (untagged) against His-DapF in the pull-downs; also called purified DapF; untagged DapF; source: purified
B3: RppH, RNA pyrophosphohydrolase, purified (enzyme, E. coli, UniProt P0A776 1-176, looked up)
chain: MIDDDGYRPNVGIVICNRQGQVMWARRFGQHSWQFPQGGINPGESAEQAMYRELFEEVGLSRKDVRILASTRNWLRYKLPKRLVRWDTKPVCIGQKQKWFLLQLVSGDAEINMQTSSTPEFDGWRWVSYWYPVRQVVSFKRDVYRRVMKEFASVVMSLQENTPKPQNASAYRRKRG
notes: RppH (NudH), RNA pyrophosphohydrolase, E. coli; Named only 'RppH' in gel filtration, SPR and the activity assays; The methods describe only the purification of His-RppH, so this may be the same protein as m1; also called purified RppH; NudH; source: purified

Experiments:
[1] = molecular target: T1, His-RppH co-expressed with DapF from pDuet-RD (E. coli, UniProt P0A776 1-176); test: pull-down; DapF and His-RppH co-expressed from pDuet-RD in E. coli ER2566; crude extract loaded onto a TALON metal affinity column; SDS-PAGE; conditions: partners not purified
T1 construct: RppH (NudH), RNA pyrophosphohydrolase, E. coli; source: E. coli ER2566 harboring pDuet-RD (from the pET-duet vector), in crude extract
T1 sequence (looked up): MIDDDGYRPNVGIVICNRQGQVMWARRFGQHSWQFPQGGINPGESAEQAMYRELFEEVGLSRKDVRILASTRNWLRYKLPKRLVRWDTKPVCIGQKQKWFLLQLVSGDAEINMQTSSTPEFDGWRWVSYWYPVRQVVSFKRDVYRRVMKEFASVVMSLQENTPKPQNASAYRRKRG

[2] = molecular target: T2, His6-RppH (6His-tagged form of RppH, RNA pyrophosphohydrolase) (E. coli, UniProt P0A776 1-176); test: pull-down; purified DapF mixed with varying amounts of His-RppH or the control protein His-enzyme IIA^Ntr on the metal affinity resin; band intensities on gel; conditions: both partners purified
T2 construct: RppH (NudH), RNA pyrophosphohydrolase, E. coli; rppH gene amplified from MG1655 genomic DNA with primers at the ATG start codon and 20 bp downstream of the TAA stop codon; also called His-RppH; His-tagged RppH
T2 sequence (looked up): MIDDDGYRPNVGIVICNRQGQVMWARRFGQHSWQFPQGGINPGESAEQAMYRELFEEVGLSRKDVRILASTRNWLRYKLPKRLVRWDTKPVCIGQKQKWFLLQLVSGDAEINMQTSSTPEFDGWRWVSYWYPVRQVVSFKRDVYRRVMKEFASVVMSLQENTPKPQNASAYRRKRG

[3] = molecular target: B3; test: SEC; Superose 12 10/300 GL, 50 mM Tris-HCl pH 8.0, 100 mM NaCl, room temperature, 0.5 ml/min; 50 μg RppH, 400 μg DapF (or 100 μg DapF(C73&217A)) or both in 250 μl, incubated 10 min on ice; fractions on SDS-PAGE; conditions: both partners purified
[4] = molecular target: the molecule itself; test: as above
DapF(C73&217A) = molecular target: T3, DapF(C73&217A) (E. coli, UniProt P0A6K1 1-274, C73&217A | C73&217A); test: as above; conditions: both partners purified
T3 construct: DapF, diaminopimelate epimerase, E. coli; the two catalytic cysteines C73 and C217 substituted to alanine; The methods list His-DapF(C73&217A) among the purified proteins; results and legends call it DapF(C73&217A); also called His-DapF(C73&217A); mutant DapF
T3 sequence (looked up): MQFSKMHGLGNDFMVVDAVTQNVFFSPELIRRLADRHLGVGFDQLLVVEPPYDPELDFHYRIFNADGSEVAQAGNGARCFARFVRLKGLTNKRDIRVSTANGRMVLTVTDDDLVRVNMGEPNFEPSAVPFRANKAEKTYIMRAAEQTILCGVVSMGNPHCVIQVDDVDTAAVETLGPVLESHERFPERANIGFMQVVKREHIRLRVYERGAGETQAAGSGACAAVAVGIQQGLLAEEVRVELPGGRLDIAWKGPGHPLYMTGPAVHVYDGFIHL

[5] = molecular target: B2; test: SPR; BIAcore 3000; RppH amine-coupled to a CM5 chip (0.7 ng/mm^2); DapF at 20, 50 and 70 μg/ml flowed at 10 μl/min; 10 mM HEPES pH 7.2, 150 mM NaCl, 10 mM KCl, 1 mM MgCl2, 0.5 mM EDTA; fit assumes a dimer–dimer interaction; conditions: both partners purified

B1: DapF co-expressed with His-RppH from pDuet-RD (enzyme, E. coli, UniProt P0A6K1 1-274, looked up)
chain: MQFSKMHGLGNDFMVVDAVTQNVFFSPELIRRLADRHLGVGFDQLLVVEPPYDPELDFHYRIFNADGSEVAQCGNGARCFARFVRLKGLTNKRDIRVSTANGRMVLTVTDDDLVRVNMGEPNFEPSAVPFRANKAEKTYIMRAAEQTILCGVVSMGNPHCVIQVDDVDTAAVETLGPVLESHERFPERANIGFMQVVKREHIRLRVYERGAGETQACGSGACAAVAVGIQQGLLAEEVRVELPGGRLDIAWKGPGHPLYMTGPAVHVYDGFIHL
notes: DapF, diaminopimelate epimerase, E. coli; source: E. coli ER2566 harboring pDuet-RD (from the pET-duet vector), in crude extract
- stoichiometry N [1]: 1 DapF:RppH

Binder: B2
- stoichiometry N [2]: 1 DapF:RppH
- stoichiometry N [3]: 1 DapF:RppH (2:2)
- stoichiometry N [4]: 2

Binder: B3
- binding result (DapF(C73&217A)): binds
- Kd [5]: ~5.2 nM
